The target of assay [1] is T1, Protein A (rProtein A Sepharose Fast Flow) (UniProt P38507 37-327).
T1 construct: Bought chromatography resin
Kind of assay: Protein A affinity chromatography (rProtein A Sepharose Fast Flow); the species is 3.2% of the Protein G-purified control but is not found in the pH 3.6 or the pH 2.7 elution fraction (cation exchange analysis). As for the experimental part:
(§1) CM filtered through ϕ0.22-μm filter was loaded onto rProtein A Sepharose Fast Flow column (GE Healthcare) equilibrated with D-PBS. Washes 1 and 2 and Elutions 1 and 2 shown in Table 76 were carried out (Elution 1 alone was performed for Q407-z106/J300-z107/L210-k). […] The quantity of CM to be loaded was adjusted in a way that the quantity of the loaded antibody is 20 mg/ml resine. Fractions eluted under each condition were collected and the components contained in each elution fraction were identified by cation exchange chromatography analysis. […] Samples purified by batchwise elution were used as controls.
(§2) The values represent the area of elution peak expressed in percentage.

Assay [2] addresses T1, Protein A (rProtein A Sepharose Fast …). Description: Protein A affinity chromatography (rProtein A Sepharose Fast Flow); the species is 5.8% of the Protein G-purified control but is not found in the pH 3.6 elution fraction (cation exchange analysis). As for the experimental part:
as §1, §2

In assay [3] the target is T2, FcγRIIb extracellular domain with C-terminal His tag (human, UniProt P31994 43-217).
T2 construct: extracellular domain; also called FcgRIIb; 2b; not shown: His tag at the C terminus
T2 sequence (looked up): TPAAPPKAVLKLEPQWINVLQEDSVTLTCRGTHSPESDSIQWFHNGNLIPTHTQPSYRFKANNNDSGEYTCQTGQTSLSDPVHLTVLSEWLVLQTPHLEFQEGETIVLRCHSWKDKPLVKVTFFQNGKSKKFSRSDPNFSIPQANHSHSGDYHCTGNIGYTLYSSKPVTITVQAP
Kind of assay: SPR (Biacore), antibody captured on chip, soluble FcgR as analyte; experiment 2. The procedure:
(§3) Antibodies of interest were analyzed for the interaction to FcgR according to the method described in Reference Example 8.
(§4) Analysis of interaction between obj ective antibody and the FcγR was carried out using Biacore T100 (GE Healthcare), Biacore T200, Biacore A100, and Biacore 4000. HBS-EP+ (GE Healthcare) was used as the running buffer, and the measurement temperature was set to 25° C. Chips produced by immobilizing the antigen peptide by the amine coupling method to a Series S sensor Chip CM5 (GE Healthcare), chips produced by allowing preliminarily biotinylated antigen peptides to interact with and immobilize onto a Series S Sensor Chip SA (certified) (GE Healthcare), chips produced by immobilizing Protein L (ACTIGEN, BioVision) to Series S Sencor Chip CM5 (GE Healthcare), or chips produced by immobilizing Protein A/G (Thermo Scientific) to Series S Sencor Chip CM5 (GE Healthcare) were used. Antibodies of interest were captured onto these chips, and allowed to interact to each FcγR diluted with running buffer. To regenerate and repeatedly use the chip, the antibodies captured onto the chip were washed off by reacting 10 mM glycine-HCl, pH 1.5.

In assay [4] the target is T3, FcγRIIa H type extracellular domain with C-terminal His tag (human, UniProt P12318 34-217).
T3 construct: extracellular domain; also called FcgRIIa H; FcgRIIaH; not shown: His tag at the C terminus
T3 sequence (looked up): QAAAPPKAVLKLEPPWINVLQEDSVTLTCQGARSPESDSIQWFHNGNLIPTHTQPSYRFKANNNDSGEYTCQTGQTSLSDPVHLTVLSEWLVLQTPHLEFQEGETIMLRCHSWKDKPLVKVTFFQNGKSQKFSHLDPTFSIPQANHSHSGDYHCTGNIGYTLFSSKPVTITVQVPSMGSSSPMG
The assay is described as above. As for the experimental part:
as §3, §4

In assay [5] the target is T4, FcγRIIa R type extracellular domain with C-terminal His tag (human, UniProt P12318 34-217).
T4 construct: extracellular domain; also called FcgRIIa R; FcgRIIaR; not shown: His tag at the C terminus
T4 sequence (looked up): T3 sequence (looked up) with H134R
The description is as above. The procedure:
as §3, §4

In assay [6] the target is T5, FcγRIIIa V type extracellular domain with C-terminal His tag (human, UniProt P08637 17-208).
T5 construct: extracellular domain; also called FcgRIIIa V; FcgRIIIaV; not shown: His tag at the C terminus
T5 sequence (P08637 17-208 F176V): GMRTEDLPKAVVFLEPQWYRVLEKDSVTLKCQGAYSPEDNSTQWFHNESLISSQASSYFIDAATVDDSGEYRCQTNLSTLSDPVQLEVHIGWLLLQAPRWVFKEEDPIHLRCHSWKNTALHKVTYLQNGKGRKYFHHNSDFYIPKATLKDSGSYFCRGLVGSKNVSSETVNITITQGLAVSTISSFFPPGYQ
Described as above. The procedure: as §3, §4

Assay [7] addresses T6, FcγRIIIa F type extracellular domain with C-terminal His tag (human, UniProt P08637 17-208).
T6 construct: extracellular domain; also called FcgRIIIa F; FcgRIIIaF; not shown: His tag at the C terminus
The assay is described as above. As for the experimental part: as §3, §4

Assay [8] deals with T7, FcγRIa extracellular domain with C-terminal His tag (human, UniProt P12314 16-292).
T7 construct: extracellular domain; also called FcgRI; FcgRIa; not shown: His tag at the C terminus
T7 sequence (P12314 16-292): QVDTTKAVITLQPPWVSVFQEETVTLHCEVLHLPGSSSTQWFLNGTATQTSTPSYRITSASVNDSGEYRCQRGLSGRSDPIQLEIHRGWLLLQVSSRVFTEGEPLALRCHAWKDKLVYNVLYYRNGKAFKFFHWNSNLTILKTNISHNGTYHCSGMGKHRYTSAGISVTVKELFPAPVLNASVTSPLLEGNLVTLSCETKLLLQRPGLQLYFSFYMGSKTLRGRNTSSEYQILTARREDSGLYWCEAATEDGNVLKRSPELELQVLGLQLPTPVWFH
The description is as above. As for the experimental part: as §3, §4

Assay [9] has as its target T2, FcγRIIb extracellular domain with …. Description: SPR (Biacore), antibody captured on chip, soluble FcgR as analyte; experiment 1. As for the experimental part:
as §3, §4
(Surface plasmon resonance follows binding to a sensor surface in real time, without labels.)

Assay [10] addresses T3, FcγRIIa H type extracellular domain …. The assay is described as above. The procedure: as §3, §4
In assay [11] the target is T4, FcγRIIa R type extracellular domain …. The description is as above. The procedure: as §3, §4
For assay [12], the target named is T5, FcγRIIIa V type extracellular domain …. Described as above. The procedure:
as §3, §4

Assay [13] deals with T6, FcγRIIIa F type extracellular domain …. Described as above. As for the experimental part: as §3, §4
In assay [14] the target is T7, FcγRIa extracellular domain with …. Described as above. The procedure:
as §3, §4

Assay [15] concerns the target T2, FcγRIIb extracellular domain with …. Kind of assay: SPR (Biacore), antibody captured on chip, soluble FcgR as analyte; experiment 3. The procedure:
as §3, §4

In assay [16] the target is T3, FcγRIIa H type extracellular domain …. The description is as above. The procedure:
as §3, §4

Assay [17] concerns the target T4, FcγRIIa R type extracellular domain …. The assay is described as above. As for the experimental part:
as §3, §4

Assay [18] has as its target T5, FcγRIIIa V type extracellular domain …. Described as above. The procedure: as §3, §4
Assay [19] concerns the target T6, FcγRIIIa F type extracellular domain …. Described as above. The procedure:
as §3, §4

The target in assay [20] is T7, FcγRIa extracellular domain with …. The description is as above. The procedure:
as §3, §4

Three molecules from patent US20180155451A1 (published 2018) can be followed below.

Substitutions are numbered along the chain they refer to.

By Kd is commonly meant the equilibrium constant for the complex coming apart.

T6 sequence (P08637 17-208): as the sequence (P08637 17-208 F176V) above, with V160F counted along it

B1: J142-z73/L180-k (antibody, human IgG4 S228P, kappa)
heavy: QVQLVQSGSELKKPGASVKVSCKASGYTFTDNNMDWVRQAPGQGLEWMGDINTRSGGSIYNEEFQDRVTMTIDKSTGTAYMELSSLRSEDTAVYYCARRRSYGYYHDEWGEGTLVTVSSASTKGPSVFPLAPCSRSTSESTAALGCLVKDYFPEPVTVSWNSGALTSGVHTFPAVLQSSGLYSLSSVVTVPSSSLGTKTYTCNVDHKPSNTKVDKRVESKYGPPCPPCPAPEFLGGPSVFLFPPKPKDTLMISRTPEVTCVVVDVSQEDPEVQFNWYVDGVEVHNAKTKPREEQFNSTYRVVSVLTVLHQDWLNGKEYKCKVSNKGLPSSIEKTISKAKGQPREPQVYTLPPSQEEMTKNQVSLTCLVKGFYPSDIAVEWESNGQPENNYKTTPPVLDSDGSFFLYSRLTVDKSRWQEGNVFSCSVMHEALHNRFTQESLSLSP
light: DIQMTQSPSSLSASVGDRVTITCKASRNIERNLAWYQQKPGQAPELLIYSASRKESGVPDRFSGSRYGTDFTLTISSLQPEDLATYYCQQYYSPPLTFGGGTKVEIKRTVAAPSVFIFPPSDEQLKSGTASVVCLLNNFYPREAKVQWKVDNALQSGNSQESVTEQDSKDSTYSLSSTLTLSKADYEKHKVYACEVTHQGLSSPVTKSFNRGEC
notes: also called homomeric antibody against FX
As to B1, in [1], the binding result is on record as “no binding”.

B2: J300-z107/L210-k (antibody, human IgG4 S228P, kappa)
heavy: B1 heavy with T69I, I72V, G77D, Y95H, R100K, H106L, K198Q, F295Y, R408K, F435Y
light: B1 light with L83I, Y92S
notes: Homomeric by-product in the culture medium of cells that express Q407-z106/J300-z107/L210-k; The H chain gene was made by linking z107 downstream of J300; also called homomeric antibody against FX
B2: the binding result in assay [2] is “no binding”.

B3: H240-AK072/H240-BH076/L73-k0 (antibody, human IgG1, kappa)
heavy 1: QDQLVQSGAEVKKPGASVKVSCKASGFNIKDTYIQWVRQAPGQGLEWMGRIDPLRKQTKYREKFEGRVTITADTSTNTAYMELSSLRSEDTAVYYCVRSGREFDYWGQGTLVTVSSASTKGPSVFPLAPSSKSTSGGTAALGCLVKDYFPEPVTVSWNSGALTSGVHTFPAVLQSSGLYSLSSVVTVPSSSLGTQTYICNVNHKPSNTKVDKKVEPKSCDKTHTCPPCPAPEYYWGPSVFLFPPKPKDTLMISRTPEVTCVVVDVSDEEPEVKFNWYVDGVEVHNAKTKPREEQYNATYRVVSVLTVLHQDWLNGKEYKCKVSNKALPAPIEKTISKAKGQPREPQVYTLPPSRKEMTKNQVSLTCLVKGFYPSDIAVEWESNGQPENNYKTTPPVLDSDGSFFLYSKLTVDKSRWQQGNVFSCSVMHEALHNRYTQKSLSLSP
heavy 2: QDQLVQSGAEVKKPGASVKVSCKASGFNIKDTYIQWVRQAPGQGLEWMGRIDPLRKQTKYREKFEGRVTITADTSTNTAYMELSSLRSEDTAVYYCVRSGREFDYWGQGTLVTVSSASTKGPSVFPLAPSSKSTSGGTAALGCLVKDYFPEPVTVSWNSGALTSGVHTFPAVLQSSGLYSLSSVVTVPSSSLGTQTYICNVNHKPSNTKVDKKVEPKSCDKTHTCPPCPAPELLGGPSVFLFPPKPKDTLMISRTPEVTCVVVDVSHEEPEVKFNWYVDGVEVHNAKTKPREEQYNSTYRVVSVLTVLHQDWLNGKEYKCKVSNDALPMPIEETISKAKGQPREPQVYTLPPSREEMTKNQVSLTCLVKGFYPSDIAVEWESNGQPENNYKTTPPVLDSDGSFFLYSKLTVDKSRWQQGNVFSCSVMHEALHNHYTQESLSLSP
light: DIQMTQSPSSLSASVGDRVTITCRASQDIHKYIAWYQQKPGQAPRLLIQYTSTLQPGVPSRFSGSGSGTDYTFTISSLQPEDIATYYCLQYEQLRTFGGGTKVEIKRTVAAPSVFIFPPSDEQLKSGTASVVCLLNNFYPREAKVQWKVDNALQSGNSQESVTEQDSKDSTYSLSSTLTLSKADYEKHKVYACEVTHQGLSSPVTKSFNRGEC
notes: Heterodimerized anti-epiregulin (EREG) IgG1 antibody with two different H chains
As to B3, the Kd turned out to be 1500 nM in assay [3]; 69 nM in assay [4]; 280 nM in assay [5]; 1.2 nM in [6]; 3.7 nM in assay [7]; 0.12 nM in assay [8]. The Kd in [9] came to 1300 nM; in [10] it was 72 nM; in assay [11], 240 nM; in [12] it was 0.99 nM; in assay [13], 2.9 nM; in [14], 0.11 nM. For the same molecule, the Kd came out at 1400 nM in [15]; 79 nM in assay [16]; 240 nM in assay [17]; 1.2 nM in [18]; 3.7 nM in assay [19]; 0.11 nM in assay [20].
